According to a protein production outcome set (Wang et al. 2014):

Test: label from the status in PepcDB records

MGPSILKMLTHAKSHKEALMAFSRREFLKSAAAASAASAVGMSVPSQLLAQAQEGEKGWRWDKSVCRFCGTGCGIMVATKNDQIVAVKGDPAAPVNRGLNCIKGYFNAKIMYGADRLTDPLLRVNEKGEFDKQGKFKPVSWKKAFDVMEAQFKRAYNELGPTGIGVFGSGQYTIQEGYMAAKLIKGGFRSNNLDPNARHCMASAVAAFMETFGIDEPAGCYDDIELTDTIITWGANMAEMHPILWARVTDKKLSNPDKVKVINLSTYTNRTSDLADIEIIFTPQTDLAIWNYIAREIVYNHPESIDMEFVKNHCIFTTGFTDIGYGMRTDIKHAKYDPKELDIAAKERSKVLSEAEGVTLRYLGMKAGDVMEMKHNATAGNHWEITFEDFKKALEPYTLDFVAKLAKGNSEESLESFKEKLQKLANLYIEKERKVVSFWTMGMNQHTRGTWVNEQSYMVHFLLGKQAKPGSGAFSLTGQPSACGTAREVGTFSHRLPADMVVANPKHRAVSEKIWKLPEGTLNPKMGAHYMNIMRDLEDGKIKFAWIQVNNPWQNTANANHWIKAAREMDNFIVCSDAYPGISAKVADLILPTAMIYEKWGAYGNAERRTQHWRQQVVPVGNAMPDVWQMAEFSKRFKLKEVWGAKKIDDKLTLPDVLEKAKAMGYSPEDTLFEVLFANSEAKSFKAKDPIGEGFENTEVFGDRRNVAGSDGEVFKGYGFFIHKYLWEEYRRFGNGHGHDLADFDTYHKVRGLKWPVVDGKETQWRFNAKYDPYARKAGSGEFAFYGDAMKELPRGDLLSPKTEEKFKLTNKAKIFFRPYMDPPEMPSSEYPLWLCTGRVLEHWHSGTMTMRVPELYRAVPEALCYMHPEDAKKLGVKQNEAVWVESRRGKVKARVDTRGRNRTPLGLVYVPWFDEKVYINKVCLDATCPISKQTDFKKCAVKVYKA
protein production: failed

MGQFSLDSISSEISERKSFIGRINDEKLSSFDDVVKQRETKSWRAWRRSKRRRFTRKRHGLLASATAEGSESTVHARLNEEDLTAEIVFEECHVSGGELNDVVRLENEMLDRFYGAGFWRSPSQKDTSSGSL
protein production: failed

MGQLPPRARAFFAAQRPLRVLMPGCGSAADLPPLLAMGHDVLAVDFSEAAIELAARQWPEAAGRLLLADFFQLQMPAFDCLFERAFLCALPVGMRSQYAERVAALIAPGGALAGVFFVADTERGPPFGMQAEALRELLSPWFELEEDLALDESVAVFRNRERWMVWRRRGLEHHHHHH
protein production: failed

MGRDASSYFHLVFFLALTLLAGCSTTGSAPETREAGAGPEELMAAVRANEDRAVLELLSMGVRPDAQARAEQTPLMVAATNGNRRIVRLLLAAGAEVNARSADGNTAVIQAAENGHLAVVRALLAAGANVNVSQGGESLLMKVVASGDLLTAEMLLAAGADVHYRRADGTTALDLARASNNQDLEMLLVQAGAAR
protein production: failed

MGREIFNRRLPDNYNDFSHSMDNAANGHYFLRVASSNYKRPDGKNVRTVRDVIAEVDQNGVVVDEWRLFDILDPYRDVIMKTLDQGAVCLNIDASQSGHTLSEEDLAALDSSDKFGDIVGSGAGRNWAHVNSVDYDSEDDSIIISSRHQSAIIKIGRDKKVKWILGTPAGWKAPFNAAILTPVDSKGQKIACQDSGCEGDFDWTWTQHTAFKIDSKSKGDILYLSAFDNGDGRGLEQPAMQSMKYSRSVIYKIDQKNKTVQQIWQYGKERGNEWFSPVTSITEYQTDKNSVFVYSATAGGAFDLSVGAFTSLPNPYLEEFKWGEKEPAVEMQIHGARGYQAMPFSLTKALTELEHHHHHH
protein production: failed

MGRIIGIDLGTTTSEIAYVKDGKPCIIRNIEEGDEHAIPSVVSIEGDEIKVGKKAKNQILLKPELTVAEVKRVMGTENIIQIQGKEYRPEEISALILKKLKEVAEYFLGEEVEEAVITVPANFNDIQRKATKNAGEIAGFKVERIINEPTAAAMAYGVDNLDKNGNILVYDFGGGTFDVTILEMFNGVLDVKVSRGNNYLGGKDIDNKLIDHVVNEFNKSTGVKLDTSDSRILARLKEGVEEAKKTLSTSKMAEIVLPYISADKDNNPINLEMVLTREEFEFNVKEIIDSTEDIVNEALEDANITDNEIDTVLLVGGSSRIPYVRNMLEKRFKGKIARGVNPDEAVALGASVQAAIKNDIPVGDSGTIIVTDTCNYTLGVALKGGIFDPIIDRDSKLPANVTKRYCTVMDNQTEVLVSVYEGESRYVSDNTLIDEFILSGIPKADTGKEKIDITFTYDLNGILNVSAEILSTGDEISKIMSTKGLSKEEIQDLKEVVSSNENNNELVPWKSANLFKLVEPNFRLAERKIPMLPSADREKLQEIMSDMKDAIVDNDKMALMKLDEELTDFLFDFVN
protein production: failed

MGRLHCTEDPVPEAVGGDMQQLNQLGAQQFSALTEVLFHFLTEQKEVERFLAQLSEFATTNQISLGSLRSIVKSLLLVPNGALKKSLTAKQVQADFITLGLSEEKATYFSEKWKQNTPTLARWAIGQTLMINQLIDMEWKFGVTSGSSELEKVGSIFLQLKLVVKKGNQTKNVYIELTLPQFYSFLHEMERVRTSMECFC
protein production: failed

MGRSQATAESYRDSLTIFKNYLVGELGKSISTFQFSDCTKECIYNFREYLLANGSQPSTVNVRVAAIRAYLNYASDMDISVQSVALAILEHHHHHH
protein production: failed

MGSAERFQRLLGDRYELRGVLGRGGMAEVRDGWDTRLARPVAIKLLYPALAADADLRARFEREARAAAALTHPHVVAVHDCGEHAGTPYIVMERLSGATLADEIAAGPLPQERVAELLDQILSALIAAHAAGIVHRDIKPGNILIGHTGQAKLADFGIAKTDGVPHTQAGQILGTMAYLSPQRVTGQPAGFADDLYAVGVVGYEALTGRRPFDRDNPAAMVRAILDDVPVPIASVRSDVAPGLIHVIDMAMAREVAFRYPDAATMRAALTGAEPPTQRVGRRQTKVLAAPLPPIPPPPVLPSPRHWRTRLILAVLGIVSTLILVLVLALARGSSGLTSPTSTPTATTVPPATSAVVPPPVPSTPVPAAVPEEPRGPGRGPGPGPGPGKGKGHEKGHGPKGPKGPPHP
protein production: failed

MGSDISQFSASPAARQHTWTLAAYRYMARKRLGGKTAIDLKSVATKSWDIAPGEATVSPPAIFLPGQLDRVTGWEGKRFYPYVHPAQTMAGGIHTLQGPTRGYLIKDVWLVDGALYKGKASHWLSQKPSTFPTILIDHEIDRAAIYCTLNGNAWFGTWLMEDCPTYALACNEGIPVTTAPSARYPLFTQAPAYEDWLDMKPLRLRSAFFRELVLFDDQSNNRSRHARYRAMGDKLLSHVTHTQHPGVFLLRGGDGDLRLLRNELELAEHLRTTRGFRIVNPLKSDVPSIVAACAGAKVVIGVEGSQLVHGVNVLQAGGCLLTLQPPNRFVSYYKYLTDRDHQHFGFVVGLPEGDGFRIDIDEVERTLDLFPR
protein production: failed

MGSGAGNFLKVLLRNFDVLAGPVVSLVYPLYASVQAIETQSHADDKQWLTYWVLYSLLTLIELTFAKLIEWLPIWSYMKLILTCWLVIPYFSGAAYVYEHFVRPVFVNPRSINIWYVPKKMDIFRKPDDVLTAAEKYIAENGPDAFEKILSRADKSKRYNKHEYESYETMYGEGYQY
protein production: failed

MGSGGVVHCRCAKCFCYPTKRRIRRRPRNLTILSLPEDVLFHILKWLSVEDILAVRAVHSQLKDLVDNHASVWACASFQELWPSPGNLKLFERAAEKGNFEAAVKLGIAYLYNEGLSVSDEARAEVNGLKASRFFSLAERLNVGAAPFIWLFIRPPWSVSGSCCKAVVHESLRAECQLQRTHKASILHCLGRVLSLFEDEEKQQQAHDLFEEAAHQGCLTSSYLLWESDRRTDVSDPGRCLHSFRKLRDYAAKGCWEAQLSLAKACANANQLGLEVRASSEIVCQLFQASQAVSKQQVFSVQKGLNDTMRYILIDWLVEVATMKDFTSLCLHLTVECVDRYLRRRLVPRYRLQLLGIACMVICTRFISKEILTIREAVWLTDNTYKYEDLVRMMGEIVSALEGKIRVPTVVDYKEVLLTLVPVELRTQHLCSFLCELSLLHTSLSAYAPARLAAAALLLARLTHGQTQPWTTQLWDLTGFSYEDLIPCVLSLHKKCFHDDAPKDYRQVSLTAVKQRFEDKRYGEISQEEVLSYSQLCAALGVTQDSPDPPTFLSTGEIHAFLSSPSGRRTKRKRENSLQEDRGSFVTTPTAELSSQEETLLGSFLDWSLDCCSGYEGDQESEGEKEGDVTAPSGILDVTVVYLNPEQHCCQESSDEEACPEDKGPQDPQALALDTQIPATPGPKPLVRTSREPGKDVTTSGYSSVSTASPTSSVDGGLGALPQPTSVLSLDSDSHTQPCHHQARKSCLQCRPPSPPESSVPQQQVKRINLCIHSEEEDMNLGLVRL
protein production: failed

MGSGWGPLEPWDRLAQPRPATGRLAAPPHCPPALPLHSAAPGSRTGTGAMERTAGKELALAPLQDWGEETEDGAVYSVSLRRQRSQRSTPEGSGDGQTPIPAMDTFLQYRTSKVRALRAARLERLVHELVSGDREQDPGFVPAFLATHRAFVPTARVLGFLLPPPPPPPPPPAGVDSKRTEGQDLNFSKNLRAVVSVLGSWLRDHPQDFRDPPDHQNLGDVRIFLGWAAPGGAEVREAEKLLEDFLKEAKEEQTEGEQRLAWAGPPWAAQSPRSEFAEDYSEEEGLRSEGPELLDFSVDEVAEQLTLMDVELFLRVRSCECLGSMWSQRDRPGAAGISPTVRATVAQFNAVTGCVLGSVLAAPGLAASQRAQRIEKWIRIAQRCRELRNFSSLRAILSALQSNPIYRLKRSWGAVSREPLSVFRKLSQIFSDEDNHLSSRAILSQEETTEGPQGDDCSPGSLPSKLPPGPVPYLGTFLTDLVMLDTALPDMLKGNLINFEKRRKEWEILARIQQLQHRCQHYSLSPRPPILAALRAQRQLSEEQSYRVSRVIEPPAASCPSSPRIRRRISLTKRLSAKLSREKNQSPGGSPGDPPSPTSSVSPGSPPASPRSQDPPPGSPPASPGPQSPSTKLSLSMEPPGPWPMTLTPSSSRTPLLGQQTSEARVIRVSINNNHGNLYRSILLTCQDKAPSVVQRALEKHNVPQPWARDYQLLQVLPGDRELLIPDSANVFYAMNPAAPGDFLLRRKEGTGHTPSASPS
protein production: failed

MGSIEEVLLEERLIGYLDPGAEKVLARINRPSKIVSTSSCTGRITLIEGEAHWLRNGARVAYKTHHPISRSEVERVLRRGFTNLWLKVTGPILHLRVEGWQCAKSLLEAARRNGFKHSGVISIAEDSRLVIEIMSSQSMSVPLVMEGARIVGDDALDMLIEKANTILVESRIGLDTFSREVEELVECF
protein production: not failed

MGSKPSSLADEVAIIVEQVDKVMGMVFWCPLYWESIELLAKDEVSRAIFYGLTEGCKLDYLKYKTKASMVPEMTRFYS
protein production: not failed

MGSKTSPKWISAILRWPLLWHAARLALVSAYILGGFTKLLDLAGAAAEQEHFGLYPGWLWASAAILVELFGSLLVVINRWVWLGAGGLGILTFVAMLTANAFWTMGGHERFMATNAFFEHLGLIAGLVIVTILSEEAVTRPKSGAGSQAIQGVSR
protein production: failed

MGSLRLLADIQGEDLESLYGYAKQLFDGGEIAAARNVYQLLSTLDHWNFDYLLALGLCHQRLGAHNEAVVCFGRAGLIKVDDPRAAFYAGISYRLDGNAEYASKAFKAAINWCGEQIDYQAIKASAVDMLALQQEEVPLEHHHHHH
protein production: failed

MGSSHHHHHHSSGENLYFQGHMDVLASGEKSRMLFERTKELFPGGVNSPVRAAVKPYPFYVKRGEGAYLYTVDGARIVDLVLAYGPLILGHKHPRVLEAVEEALARGWLYGAPGEAEVLLAEKILGYVKRGGMIRFVNSGTEATMTAIRLARGYTGRDLILKFDGCYHGSHDAVLVAAGSAAAHYGVPTSAGVPEAVARLTLVTPYNDVEALERVFAEYGDRIAGVIVEPVIANAGVIPPRREFLAALQRLSRESGALLILDEVVTGFRLGLEGAQGYFNIEGDIIVLGKIIGGGFPVGAVAGSREVMSLLTPQGKVFNAGTFNAHPITMAAGLATLKALEEEPVYSVSREAAKALEEAASEVLDRTGLPYTINRVESMMQLFIGVEEVSNAAQARKADKKFYVKLHEEMLRRGVFIAPSNLEAVFTGLPHQGEALEIAVEGLRSSLKTVLGS
protein production: not failed

MGSSHHHHHHSSGLVPRGSHMLEGIIEEKALFVTCGATVPFPKLVSCVLSDEFCQELIQYGFVRLIIQFGRNYSSEFEHLVQERGGQRESQKIPIDQFGCGDTARQYVLMNGKLKVIGFDFSTKMQSIIRDYSDLVISHAGTGSILDSLRLNKPLIVCVNDSLMDNHQQQIADKFVELGYVWSCAPTETGLIAGLRASQTEKLKPFPVSHNPSFERLLVETIYS
protein production: not failed
